Measurements as given in patent CN1678347A.

How the values were obtained:
[1] = biological target: PSGL-1 (P-选择蛋白糖蛋白配体-1) (human) (UniProt Q14242); assay: FACS competition on ML2 cells, 200ng KPL-1 against IgG Y1-PE
[2] = biological target: PSGL-1 (P-选择蛋白糖蛋白配体-1) (human) (UniProt Q14242); assay: FACS on ML2 cells, KPL-1-PE alone

Chain of UniProt Q14242 (Q14242 42-412): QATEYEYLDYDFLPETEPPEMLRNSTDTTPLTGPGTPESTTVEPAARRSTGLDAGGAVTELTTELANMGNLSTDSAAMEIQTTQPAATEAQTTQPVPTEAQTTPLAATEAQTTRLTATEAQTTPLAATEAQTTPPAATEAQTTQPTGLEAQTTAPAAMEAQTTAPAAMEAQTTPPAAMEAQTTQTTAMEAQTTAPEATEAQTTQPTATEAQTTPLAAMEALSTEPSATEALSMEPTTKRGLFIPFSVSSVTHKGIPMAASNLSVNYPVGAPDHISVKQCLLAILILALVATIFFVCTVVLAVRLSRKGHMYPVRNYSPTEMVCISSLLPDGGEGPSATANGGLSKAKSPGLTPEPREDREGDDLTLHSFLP

中值 of IgG Y1-PE with competitor (median fluorescence) [1]: 2 | 抑制百分比 [1]: 100% | 中值 (median fluorescence) [2]: 700
Substance: KPL-1 (商业化供应的抗PSGL1小鼠单克隆抗体) (antibody)
